Assay results: article PMC5499601 (Nucleic Acids Research, 2017)

Columns and labels:
Experiment in all cases: EMSA
[1] = target: T1, BsSpo0J WT (UniProt P26497 1-282)
T1 sequence: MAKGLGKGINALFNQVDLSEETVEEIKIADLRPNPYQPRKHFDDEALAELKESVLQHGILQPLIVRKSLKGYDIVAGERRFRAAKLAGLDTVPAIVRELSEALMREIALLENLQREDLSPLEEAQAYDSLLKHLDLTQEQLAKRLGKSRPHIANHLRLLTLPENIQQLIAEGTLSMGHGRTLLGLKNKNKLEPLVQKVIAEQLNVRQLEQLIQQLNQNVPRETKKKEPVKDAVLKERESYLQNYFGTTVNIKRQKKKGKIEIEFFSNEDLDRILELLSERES

[2] = target: T2, BsSpo0J V75A (UniProt P26497 1-282, V75A)
T2 sequence: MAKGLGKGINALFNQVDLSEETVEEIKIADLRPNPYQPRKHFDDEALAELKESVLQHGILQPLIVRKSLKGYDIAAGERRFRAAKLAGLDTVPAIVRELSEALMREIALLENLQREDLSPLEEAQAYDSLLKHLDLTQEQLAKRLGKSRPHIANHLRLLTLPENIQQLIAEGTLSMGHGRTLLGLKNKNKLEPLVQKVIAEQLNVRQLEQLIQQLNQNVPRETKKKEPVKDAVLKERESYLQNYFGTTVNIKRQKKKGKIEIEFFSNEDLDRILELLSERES

[3] = target: T3, BsSpo0J L60E (UniProt P26497 1-282, L60E)
T3 sequence: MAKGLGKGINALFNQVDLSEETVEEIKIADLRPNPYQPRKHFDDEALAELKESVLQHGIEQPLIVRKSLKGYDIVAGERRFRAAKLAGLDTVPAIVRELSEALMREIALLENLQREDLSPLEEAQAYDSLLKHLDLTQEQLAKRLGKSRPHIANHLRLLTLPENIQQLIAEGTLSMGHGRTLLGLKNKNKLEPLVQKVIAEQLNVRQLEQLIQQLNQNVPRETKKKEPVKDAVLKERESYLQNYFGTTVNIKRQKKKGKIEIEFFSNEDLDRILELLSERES

[4] = target: T4, BsSpo0J R105A (UniProt P26497 1-282, R105A)
T4 sequence: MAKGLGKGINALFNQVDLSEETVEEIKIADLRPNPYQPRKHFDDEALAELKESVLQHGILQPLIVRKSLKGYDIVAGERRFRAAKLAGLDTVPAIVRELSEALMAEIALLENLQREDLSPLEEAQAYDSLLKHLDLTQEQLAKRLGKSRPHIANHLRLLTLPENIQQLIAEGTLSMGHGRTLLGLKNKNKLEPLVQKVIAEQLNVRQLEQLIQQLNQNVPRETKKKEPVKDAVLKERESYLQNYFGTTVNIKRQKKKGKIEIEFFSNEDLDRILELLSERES

[5] = target: T5, BsSpo0J R39A (UniProt P26497 1-282, R39A)
T5 sequence: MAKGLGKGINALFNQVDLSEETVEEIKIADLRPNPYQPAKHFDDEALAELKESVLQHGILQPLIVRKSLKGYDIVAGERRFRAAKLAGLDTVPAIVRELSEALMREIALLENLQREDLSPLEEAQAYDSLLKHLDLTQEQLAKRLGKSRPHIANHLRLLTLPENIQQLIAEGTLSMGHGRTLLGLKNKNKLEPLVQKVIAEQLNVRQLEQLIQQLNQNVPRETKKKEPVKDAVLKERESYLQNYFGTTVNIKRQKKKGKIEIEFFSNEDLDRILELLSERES

[6] = target: T6, BsSpo0J E52R (UniProt P26497 1-282, E52R)
T6 sequence: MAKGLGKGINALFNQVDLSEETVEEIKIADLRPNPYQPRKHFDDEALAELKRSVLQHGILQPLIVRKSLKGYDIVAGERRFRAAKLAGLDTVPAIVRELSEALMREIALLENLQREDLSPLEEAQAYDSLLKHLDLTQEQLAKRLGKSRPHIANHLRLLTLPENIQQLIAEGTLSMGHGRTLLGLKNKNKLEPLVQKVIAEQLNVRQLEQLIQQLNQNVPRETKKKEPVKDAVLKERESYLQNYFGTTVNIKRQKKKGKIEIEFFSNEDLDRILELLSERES

[7] = target: T7, BsSpo0J Q61R (UniProt P26497 1-282, Q61R)
T7 sequence: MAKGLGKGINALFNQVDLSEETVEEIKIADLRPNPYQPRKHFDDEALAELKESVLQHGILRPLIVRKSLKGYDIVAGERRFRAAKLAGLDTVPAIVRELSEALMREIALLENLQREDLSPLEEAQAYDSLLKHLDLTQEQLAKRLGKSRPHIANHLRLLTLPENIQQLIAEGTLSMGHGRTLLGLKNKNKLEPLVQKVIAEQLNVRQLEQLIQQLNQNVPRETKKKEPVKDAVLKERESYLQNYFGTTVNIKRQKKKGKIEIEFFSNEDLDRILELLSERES

[8] = target: T8, BsSpo0J F81A (UniProt P26497 1-282, F81A)
T8 sequence: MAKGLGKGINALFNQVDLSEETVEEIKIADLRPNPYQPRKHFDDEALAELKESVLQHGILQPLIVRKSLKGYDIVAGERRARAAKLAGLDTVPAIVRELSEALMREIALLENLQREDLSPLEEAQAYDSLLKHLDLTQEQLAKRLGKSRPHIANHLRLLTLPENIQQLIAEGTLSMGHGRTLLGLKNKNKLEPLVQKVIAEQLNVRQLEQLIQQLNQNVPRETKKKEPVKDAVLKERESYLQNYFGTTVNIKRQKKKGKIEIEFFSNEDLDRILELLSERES

[9] = target: T9, BsSpo0J R79A (UniProt P26497 1-282, R79A)
T9 sequence: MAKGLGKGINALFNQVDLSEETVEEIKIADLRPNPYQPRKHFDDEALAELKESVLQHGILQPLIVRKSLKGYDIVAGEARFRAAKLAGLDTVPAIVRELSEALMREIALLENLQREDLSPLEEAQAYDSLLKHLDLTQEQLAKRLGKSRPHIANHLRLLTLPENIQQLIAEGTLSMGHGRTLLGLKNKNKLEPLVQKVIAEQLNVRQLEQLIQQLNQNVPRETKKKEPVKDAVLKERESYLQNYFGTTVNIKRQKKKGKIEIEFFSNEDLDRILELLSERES

Measured: binding result

B1: 24-bp parS (dsDNA)
DNA 1: AGAATGTTCCACGTGAAACAAAGA
DNA 2: TCTTTGTTTCACGTGGAACATTCT
binds: [1] | [2] | [3] | [4] | [5] | [6] | [7] | [8] | [9]
